According to patent US10759835B2, “Monomeric streptavidin mutants, methods of using the same and processes of manufacturing proteins” (The Research Foundation for The State University of New York, priority 2016, dated 2020):
Several values for one entry are separate records, joined by “and”; a condition that tells them apart may be missing. Equal values may be shown once. Read-outs that look alike come from different tables or passages of the source.

B1: mSA-RF: monomeric streptavidin mutant SEQ ID NO: 3, S25R and T48F (protein)
chain: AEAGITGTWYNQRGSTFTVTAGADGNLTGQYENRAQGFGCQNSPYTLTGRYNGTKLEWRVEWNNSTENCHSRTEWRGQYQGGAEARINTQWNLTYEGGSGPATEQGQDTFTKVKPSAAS
modifications: Modified streptavidin
B2: Brad2: bradavidin 2, streptavidin homolog, SEQ ID NO: 21 (protein, listed as Bradyrhizobium japonicum)
chain: QGLPAPSYWKNERGSELLIWSANSGTIQGTFTNHAQGFACQGIPYPAAGSVSPTGLYFVVTFAQCNSFTRWVGTIKGSQMPTSWTLFYVDNKGKPSRLKGGDIFTRVW

Experiments:
[1] = Fluorescence polarization spectroscopy, biotin dissociation rate (koff); assay type: binding; settings: 37° C.
Description: (§1) FIG. 4. In vitro characterization of purified mSA mutants. a) Stability of mSA-RF and mSA-RWT in PBS was measured by circular dichroism spectroscopy with or without biotin. b) Fluorescence polarization spectroscopy was used to measure the dissociation rate of biotin-fluorescein. The dissociation rate, koff, was computed by fitting normalized fluorescence polarization data, or bound fraction f, to an exponentially decaying function, i.e. ƒ=e^−k^off^*t The measurements were taken at 37° C. c) The equilibrium affinity of binding Kd between mSA-RF and biotin-fluorescein was measured by FP. d) mSA-S25H and mSA-RF were analyzed by size exclusion chromatography to estimate their molecular weights in solution. Each mutant eluted with a retention time that was consistent with monomeric streptavidin. The molecular weight standards (arrows) correspond to 66.0, 29.0, 12.4 and 6.5 kDa from left to right.
The binding of biotinylated fluorescein (bf, AnaSpec) was measured using a microplate reader (SpectraMax® i3 Microplate reader from Molecular Devices) in flat bottom 96 well plates (Sterilin Ltd). To measure Kd, 100 nM bf was first mixed with titrating amounts of mSA in PBS containing 0.1 mg/ml bovine serum albumin (BSA). After overnight incubation at room temperature, the fluorescence polarization values were measured and fit to the quadratic binding equation (Hsu and Park, 2010, J Mol Graph Model, 29, 295-308). To measure the off rate (koff), 10 nM bf was first mixed with 50 nM mSA and incubated for 2 hr to form a biotin-mSA complex. To observe dissociation of bf, excess free biotin was added to a final concentration of 100 μM and recording of fluorescence was started immediately. The intensity of polarized fluorescence was measured at various time points and normalized with respect to the value at t=0 min. The intensities were fit to an exponentially decaying function e^−k^off^*t to compute koff. The dissociation half-life t1/2=0.693/koff.
We measured the biotin dissociation rate of various mSA mutants by fluorescence polarization spectroscopy. Table 2 presents the biotin dissociation rate (koff) of various mutants measured by fluorescence polarization spectroscopy. The S25R mutation lowered koff by nearly 21 fold compared to the original mSA and 3.3 fold compared to the S25H mutant (Table 2, FIG. 4b).

[2] = Fluorescence polarization spectroscopy, equilibrium affinity Kd; settings: biotin-fluorescein, overnight incubation at room temperature, PBS 0.1 mg/ml BSA; read-out: equilibrium binding constant Kd
Description: as §1, with “Each mutant eluted with a retention time that was consistent with monomeric streptavidin. The molecular weight standards (arrows) correspond to 66.0, 29.0, 12.4 and 6.5 kDa from left to right.” left out
The binding of biotinylated fluorescein (bf, AnaSpec) was measured using a microplate reader (SpectraMax® i3 Microplate reader from Molecular Devices) in flat bottom 96 well plates (Sterilin Ltd). […] After overnight incubation at room temperature, the fluorescence polarization values were measured and fit to the quadratic binding equation (Hsu and Park, 2010, J Mol Graph Model, 29, 295-308). […] To observe dissociation of bf, excess free biotin was added to a final concentration of 100 μM and recording of fluorescence was started immediately. The intensity of polarized fluorescence was measured at various time points and normalized with respect to the value at t=0 min. […]

[3] = Circular dichroism spectroscopy, thermal denaturation; assay type: physicochemical
Description: as §1
FIG. 8. Circular dichroism spectra of mSA-RF after low pH treatment to release bound biotin is shown in a). mSA-RF was first buffer exchanged to 100 mM glycine (pH 2.3) and then back to PBS (pH 7.5) before CD analysis. The spectra obtained at temperatures 30, 40, 50, 60, 70, and 80° C. were overlaid. The spectra at lower temperatures were colored darker than the spectra at higher temperatures, i.e. the darkest for 30° C. and the lightest for 80° C. The CD values at 235 nm (from FIG. 8a) were used to compute the unfolded fraction shown in b).
FIG. 9. To evaluate the importance of the biotin additive, mSA was induced without biotin in the medium as shown in a). The culture medium was then pH adjusted to 7.5 and poured over Ni-NTA resin, which immediately turned brown (not shown). 1. Culture medium, 2. Flow through after Ni-NTA, 3. Wash, 4. Elution. The amount of purified mSA was approximately 20% of the expressed protein. (*) mSA. Thermal denaturation of mSA-RF purified with (circle) and without (square) biotin in the medium is shown in b).
Purified mSA was diluted to 15 μM in PBS and loaded in a quartz cuvette with 1.0 mm path length. […]

[4] = system: HEK293 cells displaying biotinylated AP-CFP; assay: Fluorescent labeling of cell surface biotinylated receptor, confocal microscopy; assay type: cell-based
Description: FIG. 5. Fluorescent labeling of HEK293 cells displaying biotinylated receptor. a) HEK293 cells displaying biotinylated AP-CFP were labeled with Alexa488-conjugated mSA-RWT and imaged by fluorescence microscopy. Fluorescence was filtered for (i) CFP and (ii) Alexa488 and the same field of vision was imaged multiple times at regular intervals to measure the stability of labeling. iii. DIC. mSA-RWT binds only CFP positive cells, indicating high specificity of interaction. b-c) HEK293 displaying unrelated protein fused to CFP b) or untransfected HEK293 c) were treated with purified BirA and then labeled with fluorescent mSA-RWT as in part (a) (i)-(iii) the same as before. d) The captured fluorescence images of mSA-RWT—Alexa488 labeled cells (in jpg format) were loaded into MatLab and the amount of CFP and Alexa488 fluorescence was quantified by summing over pixel values. The fluorescence intensity was normalized with respect to the value at t=0. e) Cells labeled with mSA-RF—EGFP were similarly imaged and analyzed to determine the time dependent loss of mSA labeling.
Adherent HEK293 cells were seeded in a 24 well plate (Becton Dickinson) and grown in DMEM supplemented with 10% FBS and antibiotic/antimycotic (Invitrogen). At 50% confluency, the cells were transfected with a plasmid containing pDisplay-AP-CFP-TM. After 2 days the wells were supplemented with 100 nM purified BirA, 5 mM ATP, and 0.3 mM biotin and the biotinylation reaction was carried out overnight. The following morning, the cells were detached from the wells using EDTA Solution (Versene from Life Technologies), washed with PBS containing 0.1% w/v BSA (PBSF), and fixed in 4% paraformaldehyde solution. Prior to microscopy, cells were labeled with 1 μM mSA-RWT—Alexa488 or 1 μM mSA-RF—EGFP in PBSF for 30 minutes. Excess protein was washed away and cells were switched to PBSF with 0.9 mM biotin. Each sample was mounted on slides and imaged using confocal microscopy. The same field of view was imaged every 10 min for 60 min to quantify fluorescence loss as a function of time. The captured images were analyzed with microscope software (ZEN from Zeiss, and MatLab® from MathWorks).
We tested the use of mSA-RWT or mSA-RF in cell imaging, in which biotinylated proteins on the cell surface were labeled with Alexa488 conjugated mSA-RWT or mSA-RF fused to EGFP, and imaged by fluorescence confocal microscopy. Cell imaging is an important test of whether engineered mutants can specifically interact with biotinylated ligands in a heterogeneous environment, in which other potentially competing interactions can interfere with desired detection. […]
To evaluate the stability of labeling, we imaged the labeled cells repeatedly over 1 hr and quantified the fluorescence intensity of Alexa488 or GFP at regular intervals. […]

[5] = biotin; monomer at low pH and protein concentrations; cited from earlier work

Row | Molecule | t1/2 ([1]; dissociation half-life t1/2=0.693/koff, biotin-fluorescein) | Koff(×10^−3 min^−1) ([1]; dissociation of biotin-fluorescein, excess free biotin 100 μM) | Kd [2] [nM] | denaturation temperature ([3]; after low pH treatment (100 mM glycine pH 2.3) and exchange back to PBS pH 7.5) [°C] | thermal unfolding behaviour ([3]; protein purified with biotin in the medium) | thermal unfolding behaviour ([3]; protein purified without biotin in the medium) | Alexa488/GFP fluorescence of labeled cells over time ([4]; after 1 hr, 900 μM biotin in the labeling solution) | labeling of cells displaying biotinylated AP-CFP ([4]; fixed HEK293 cells, 1 μM for 30 minutes) | Kd [5] [nM]
1 | B1 | 6.7 h and 6.7 ± 0.3 h | 1.73 ± 0.79 ×10^−3 min^−1 | 1.3 | 60 | clear two state unfolding transition | does not show such transition | remained high | Only CFP positive cells were labeled selectively | 
2 | B2 |  |  |  |  |  |  |  |  | < 0.1
